Experimental data published in a protein production outcome set (Wang et al. 2014).

experiment: label from the status in PepcDB records
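Further: failed if final PepcDB status was selected cloned or expressed and not failed if soluble or beyond.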

Q: For “MIIDEKRVQEIKNGETSLGIEFGSTRIKAVLIANDFSILASGSFEWETSLENGVWTYSIDEIWKGLQYSYQKLFAEVKEKYGVVLSKIGSIGFSAMMHGYMAFDNKGELLVPFRTWRNTMTEEAAKKLTDLFKFNIPERWSIAHLYQAILRNEPHVEKIDFLTTLAGYIHWQLTGEKVLGIGDASGMFPIDTQTHNYDKNMLETFKNLPEVKKHSLDLEKLLPKVLLAGENAGVLTLEGAKKLDVSGNLQPGIPLCPPEGDAGTGMVATNSVAPRTGNVSAGTSIFAMVVLEKPLNRVHPEIDIVTTPSGDLVAMVHANNGCSDLEAWVNIFQQFTEAINVDMRKDLLYMALYTQAFQGDPDCGGVLAYNYFAGENITGVSEGRPMVVRKAKSNFNLPNFMRAHLFTSLGALKIGMDILLKDEAVKLDKLLGHGGLFKTPIVGQAAVAGAVNAPVSVMETAGEGGAWGIALLASYLRSKENDSTLPEFLSKNVFAGYVAEEVQPDPKDVKGFEEFIERYKKGIAIEQAAVEHLILEHHHHHH”, which protein production is on record?
A: failed

Q: For “MIIERLVGNLRDLNPLDFSVDHVDLEWFETRKKIARFKTRQGKDIAIRLKDAPKLGLSQGDILFKEEKEIIAVNILDSEVIHIQAKSVAEVAKICYEIGNRHAALYYGESQFEFKTPFEKPTLALLEKLGVQNRVLSSKLDSKERLTVSMPHSEPNFKVSLASDFKVVVK”, which protein production is on record?
A: not failed

Q: Which protein production does the source give for “MIIETERLLLRPFNEQDVDALYLMNSNPAMLKYIPTAPFTDREQARELFHNVILQDYQQRGFGRWAVEHKADNRVIGFCGPKFIPEFNEVEIGYRYFPEYWGKGIGTEAAEAALSVFPQFGIKQTIALILEGNLGSETVAKRVGMYWREHSEFMGHKINVYAKIL” here?
A: failed

Q: For “MIIHTLHRYILRNLLVGLAVGSVALIVLIWLINSLKFLDWFVNKGLSVATFLRLTLLLMPGFLTVFIPIALFAVVLFTYNRLAADRELIVMRAAGMGPWQLARPALALCAVLTGVGYWLTLSVVPAMEGAFEAIKYEVRGEVSSLVIKEGQFNQMKDGLIVYAGERAKDGRLIDLMIHDTTGKTSDLTVMAESGALVREGEGARILLINGNRQERNRQTGKVNFLYFDSYAVDLGGKAASTEMRFREERERPLSELISLKAGDRIDPDYPFTYEERHIRRMRMEAHLRLLRPLAHIGFLLIGLAAVLTGEFDRRGGNKRVILAVALVVLFQAGSLGAATVAKKSLDGLLLLDLMTLLPILVGWIWLVWPSERWGRRRLAPRRGRTAAPALGGGAGR”, which protein production is on record?
A: failed

Q: Which protein production does the source give for “MIIRIVQNIQRINKEGNAPLYISFYLGKEKVVIPCKLSVPTTKFDSKTGMLRGTNKEAKDINLIIERLKAKVNDILVKHRLKNLTLNKEAFMREYNNPSDFKSFHDFVASYMKTYSRRLEIGTFRHHKSCMRKFKEYCEGLQFHELTEDFLRDYLIYMKKTLCNADSTAQRNLSTIKIYVSAAIKKGYMENDPFKDFGVKRIKSNIDYLTEEELIKFISLYYDRRLPERLERTLGFFLFMCFTSLHISDARHVCLEQINNGILTYYRIKNRNCKPEAIKIPLSIPAFKIIEELQGKRKEGH” here?
A: failed

Q: Which protein production does the source give for “MIIRQGFKFRLEASDTQGARLRVLCGHARFVWNQALAKCHEAADAEGEYVPRYETMAKWVTAWKREPDTEWLKEAYTDNLQQKLKDLDTGWQRYFKKVEGAQRPRFKKKGKSRDSVRFVNFQKYCKIDNRRVKLPAGLGWVRFRKSREIVGAIKNCTVGFEGGRWFISFQTEREVSEPAHPSASMIGVDMGVARFLTLSDGTFIEPVSAFKVNQGNLARAQRALARKVKFSANWQKQKAKINRLHSRIANLRRDTLHKASTQISNNHAMIVIEDLKVGNMSRSAKGDVDNPGVNVKAKSGLNRSILDQGWYEFRRQLEYKQAFRGGGVLAVPAHHTSQTCPECQHVSPDNRTSQARFECVKCGFKENADLVGAINIQARGHRVLACGEFGLPDSVKQEPVRNREEVAPSAAHAALGIPHRRC” here?
A: failed

Q: With “MIITKNISLPELYQEWLDLKIMPSNRSDVTKKKYLSRKVTLEKLFGDKPISQIRPSEYQRIMNNYGQRVSRNFLGRLNTGVKQSLQMAIADKVMIEDFTQNVELFSTVKLEHHHHHH” as the sequence, how does the protein production read?
A: not failed

Q: For “MIIYDQHVHTSFSFDSNEKMEDYMKLAGQDFVSTEHLEFNNPEVQNHDSIPDYTKYVAEIERLKKATGKRVHKGIEIGMSAGQADKIKDYLAHHTFDIKLLSFHQDGTKDFGSNMVSHLDPLQVTDQYYQLMWKGINEFHDADVLAHFDYGVRRLSLTSGQFSTTAGVLLTNIFKVAIQNNLAFELNTKSMYKYHNIGLYDYAIEIYKQLGGKRYTIGSDAHDATHYEDHFRDALDMLKAHDIHHINVYRQGAMTVVPIDDIPEDL”, which protein production is on record?
A: failed

Q: With “MIKEFSDPLYGFVRVGEAGLRLIDSFPFQRLRYVKQLGLAYLVFPSAQHTRFEHSLGVYHITERICESLKVKEKELVKLAGLLHDLGHPPFSHTTEVLLPRERSHEDFTERVIKETEIYEILKQDYSHEDIERLVRITLGKPEDEEEKLLSEIITGEFGSDRMDYLRRDAYFCGVSYGFFDYDRLISTLRVYENKVVVDESGLRALENFLISRYFMYVQVYFHKVVRILSIHLVEFLKKLISQEDFTDINNFLRLNDAFVISELFKRKAFREDFERIFQRKHFKTLLSTENYEKFSETKERLLEKFPQEKVRFDEVEKEVYGGNIYVLSSEGLKKAHELSPLIASLKPIKLYRIYVDRQLWEKARSELKLS” as the sequence, how does the protein production read?
A: not failed

Q: With “MIKEWATVVSWQNGQALVSCDVKASCSSCASRAGCGSRVLNKLGPQTTHTIVVPCDEPLVPGQKVELGIAEGSLLSSALLVYMSPLVGLFLIASLFQLLFASDVAALCGAILGGIGGFLIARGYSRKFAARAEWQPIILSVALPPGLVRFETSSEDASQ” as the sequence, how does the protein production read?
A: failed

Q: With “MIKGEQKRYSEMTKEELQQEIAMLTEKARKAEQMGMVNEYAVYERKIAMAKAYMLNPADFHPGEIYEIEGAPGEYFKVRYLKGVFAWGWRLKGNGEEEALPISLLRKPNLPQS” as the sequence, how does the protein production read?
A: not failed

Q: With “MIKGTGHMIVNIANDRGMSIDSIRKTIKESVLIAYKKYFGSNENAFIKFDDDTGDLSVYAKKKIVKEVKDSLLEILEKDISKENIVEGDYAYIEINPKVFDRLSIQVAKQRTKNDLQGIEDNEILSEFKSKLNKVVIGYVQQNRNGDLYVNLGNTDGIIPKKYQSPREVYNLNDKIRVLVYNVKKGKNGIEVILSRTHPKFIEELLALEIPEIEEGIIKIHKIVRDPGYRIKVAVYSEKEEIDPVGPCIGQKGVRIQSIIKELEGEKIDIIPYSKDIKEFIKDSLTPSKIEHVYILDEDLHKALVVVSDDQLSLAIGKMGQNVRLANRLLDWAIDVKTSSQFAEMKANSEFKQETLEMFDKVMQDVVEEEQFEEISKISDLKLLDPSVISNLSKEGFDDINNFLQADEGVLFNLGVSYEKQEEINKILKEGMIIIANDNDESMEKVEEDEELLCPECGVVINENMTSCPGCKIGLSFEFEEE” as the sequence, how does the protein production read?
A: failed

Q: With “MIKLIYKPLWLILLIFFSLKAIAEDHYPTAPSPFYYVSDYTKTLNQQEWRTLEDALINNRSKTSSQIIVVMIPSTDGEEIARYAHNLFNKWGIGRVKHNENNGVLLLIAKNDRKLFIATGRGLESALPDAIAATIIRHHITPYFKQNLYAEGIASGLSAIMAAINGEFAAYDEYQSSNNQTLDGFFFFLFAAFVIFMMFRPTRNSQYISRSNTKPFQQILRHSRYHHDTSRDLYRGGSGDSFGGGSSGGGGAGGSWLEHHHHHH” as the sequence, how does the protein production read?
A: failed

Q: Which protein production does the source give for “MIKQSPKYITPLNEQNVNKDNANLLVCPFAGASNSAFNSWRSTDISGLNCQLVNYSGHGCRFKEPAFNDIGLLANELITIIKKFYPPRHNSLLLCGHSMGAQVAFETAIQLEKNGWELSGLILSGCQAPHIQARRLLSDLNDDDFIQQLIAIGGCDAELIKQPQLLKQFMPLLRADFLATERYFFQKSTKRLFHTPVLLMYGSHDSEADKNEVEAWQDWIDKHCTINCIAGDHFYPITRPNTFCRFIIDFYHQ” here?
A: failed

Q: With “MIKSDDAGKLILRLALGILVIMHGLAKLSSGVGGIAGMLSSHGLPGFLAYFAYVGEIVGPLLIILGIYCRLGALLVVLNMVVAILLAHMGQLFSISNTGGWALELQGMFLFGALALAFMGAGRFSLAGSGGRWN” as the sequence, how does the protein production read?
A: failed

Q: Which protein production does the source give for “MIKSTNIQAIGSGIMHQINNVYSLTPLSLPMELTPSCNEFYLKTWSEWEKNGTPGEQRNIAFNRLKICLQNQEAELNLSELDLKTLPDLPPQITTLEIRKNLLTHLPDLPPMLKVIHAQFNQLESLPALPETLEELNAGDNKIKELPFLPENLTHLRVHNNRLHILPLLPPELKLLVVSGNRLDSIPPFPDKLEGLALANNFIEQLPELPFSMNRAVLMNNNLTTLPESVLRLAQNAFVNVAGNPL” here?
A: failed

Q: Which protein production does the source give for “MIKVEKEVSNDYIIKGFKHFTQLATEYFQGHPDCNAARKRMRDTIDANLQLKAELTAASYTEHTTLLSPKMQQIIWAHWGPPIISLSENHANELEHHHHHH” here?
A: failed

Q: Which protein production does the source give for “MIKVGVIGFGTVGQGVVESLVQLERGLRKEVTLEMLLVTNRRKHEHSEQYALVTDDWETFAARYYDVVFEAAGGIEPVYDYVRFFLKKGVPVVTANKKLVAERGEELERLAAENDTYLCYEAAVAGGIPILNAIKGTLATTSFTSVAGILNGTTNYILTGMIEQNRPFQDMLEEAQAKGYAEADPTDDIEGYDAWYKIRILARLCFGIWPNRDDISRSGLHDVLDWHVELGQSLGLTLKLDGRASVKNNTIIGSVAPAFFTNDHPFSTVYGVTNAVVLEGKAIERLLFTGPGAGKEATANSMVEDYLFHERYKGERQPMLIKEKEQNRIANVLVMVAAHEKKEAEKVVEHLPCQRINTFAADEGEAWWLKVYEDVIPFISKQLGLSLYRVYGAFEKQLVTTNMHHPSSIDETLEQKA” here?
A: failed

Q: Which protein production does the source give for “MIKYILGIVIFIAIVLVAITIGANNDQIITFNYIVAESQFQLSSLVAILFGLGLILGWLITAFFYIKLKLKNMALARQVKRQTLQINELTTTRDKVV” here?
A: failed

Q: Which protein production does the source give for “MIKYLIEKEFKQLLRNSFLPRLIFIFPCMIMLLMPWAANLEIKNIRMNIIDNDHSVISRRLVDKITASTYFQTTALPDSYEKGMEAIEAGTADLLLEIPRGFEKDWVNGGAANVLLAVNAVNGTKGGLGSSYLSAIVNDYGEELRTESGTTSFSADGNLPRIDILTQNLFNARLDYKLFMVPALMVMLLTMLCGFLPALNIVGEKEAGTIEQINVTPVGKFTFILAKLIPYWLIGFVVLTLCFVLAWTLYGIFPVGHFWVIYCFSIVFVLAVSGLGLVISNHSATMQQAMFVMWFCMLILILMSGLFTPIRSMPEWAQWITMLNPLKYFMQVMRMVYLKGSGFIDLLPQLGALLAFALLFNVWAVKSYRKSG” here?
A: failed

Q: For “MILEDLNQLPAAEASHTFMQCSASAWVKKMVTARPFSSELAIKKAADDAWQGLTEQDYFEAFEGHPKIGDVSSLRAKYANTKELAGNEQGLVKEANDDVLEVLSQGNSDYEKKFGFIFIVCATGKSAKQMSDLLQARLPNNKTQELVNAAEEQRKIFQLRIDKALAEGLEHHHHHH”, which protein production is on record?
A: failed

Q: For “MILGIDVGGTSVKFGLVTPEGEIQNATRFMTADWVNGIGFVESMKLEIGNFLKQYPIVKGVGIGWPGLVSLDRTKVILLPNIPSVVNVPIVEILRSEFPHIHFKIENDAKCAALGEYYFGENKRMQTFILLALGTGVGSGVMMNGKLFIGGRGNGTEVGHMLTTRGKSLENQVGINHLIAYTHEQLALDVAKKSSLHTIAELSPKVIADHAAQGDALALAVWADIGTIIGESLVNIVRVMDLNNILLGGGISGAFDYFVPNLKKAMLEHLPTYYTDDMYIGKATLENDAGLLGAAGLIMEAI”, which protein production is on record?
A: not failed

Q: With “MILIRNVRLVDARGERGPADVLIGEGRILSLEGGEAKQVVDGTGCFLAPGFLDLHAHLREPGEEVKEDLFSGLLAAVRGGYTDLVSMPNTKPPVDTPEAVRALKEKAKALGLARLHPAAALTEKQEGKTLTPAGLLREAGAVLLTDDGRTNEDAGVLAAGLLMAAPLGLPVAVHAEDAGLRRNGVMNDGPLADLLGLPGNPPEAEAARIARDLEVLRYALRRSPATPRLHVQHLSTKRGLELVREAKRAGLPVTAEATPHHLTLTEEALRTFDPLFKVAPPLRGEEDREALLEGLLDGTLDAIATDHAPHTLAEKEKDLLRAPFGIPSLEVAFPLLYTELHLKRGFPLQRLVELFTDGPRRVLGLPPLHLEEGAEASLVLLSPKERPVDPSAFASKARYSPWAGWVLGGWPVLTLVAGRIVHEALK” as the sequence, how does the protein production read?
A: not failed
